According to publication PMC5501727, “The Structure of the R2TP Complex Defines a Platform for Recruiting Diverse Client Proteins to the HSP90 Molecular Chaperone System” (Structure(London, England:1993), 2017):

T1: Tah1p-Pih1p complex (yeast, UniProt P25638 1-111; P38768 1-344)
T1 construct: Tah1p, TPR domain protein of yeast R2TP; gene cloned into a modified pET28b (NdeI/BamHI) giving 2xStrep-tagged Tah1p; Pih1p of yeast R2TP; PIH1P gene cloned into p3E (modified pGEX6p) with NdeI and HindIII; Heterodimer of 53 kDa by sedimentation velocity; also called TP; 2xStrep-Tah1p-Pih1p
T1 sequence (looked up) 1: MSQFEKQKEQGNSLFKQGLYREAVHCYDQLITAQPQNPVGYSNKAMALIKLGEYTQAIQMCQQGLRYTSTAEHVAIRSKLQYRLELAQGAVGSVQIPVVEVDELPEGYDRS
T1 sequence (looked up) 2: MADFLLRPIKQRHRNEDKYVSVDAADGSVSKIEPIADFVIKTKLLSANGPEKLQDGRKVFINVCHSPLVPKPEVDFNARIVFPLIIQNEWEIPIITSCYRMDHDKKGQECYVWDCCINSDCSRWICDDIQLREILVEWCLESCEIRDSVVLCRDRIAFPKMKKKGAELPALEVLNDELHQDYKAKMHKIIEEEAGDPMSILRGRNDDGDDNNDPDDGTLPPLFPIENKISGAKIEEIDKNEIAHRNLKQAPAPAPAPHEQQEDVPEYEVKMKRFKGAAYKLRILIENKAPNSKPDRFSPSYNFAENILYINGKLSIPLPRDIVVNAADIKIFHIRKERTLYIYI

B1: Rvb1p-Rvb2p complex (hetero-hexamer) (complex, Saccharomyces cerevisiae)
chain 1: MVAISEVKENPGVNSSNSGAVTRTAAHTHIKGLGLDESGVAKRVEGGFVGQIEAREACGVIVDLIKAKKMSGRAILLAGGPSTGKTALALAISQELGPKVPFCPLVGSELYSVEVKKTETLMENFRRAIGLRIKETKEVYEGEVTELTPEDAENPLGGYGKTISHVIVGLKSAKGTKTLRLDPTIYESIQREKVSIGDVIYIEANTGAVKRVGRSDAYATEFDLETEEYVPLPKGEVHKKKEIVQDVTLHDLDVANARPQGGQDVISMMGQLLKPKKTEITEKLRQEVNKVVAKYIDQGVAELIPGVLFIDEVNMLDIEIFTYLNKALESNIAPVVVLASNRGMTTVRGTEDVISPHGVPPDLIDRLLIVRTLPYDKDEIRTIIERRATVERLQVESSALDLLATMGTETSLRYALQLLAPCGILAQTSNRKEIVVNDVNEAKLLFLDAKRSTKILETSANYL
chain 2: MSIQTSDPNETSDLKSLSLIAAHSHITGLGLDENLQPRPTSEGMVGQLQARRAAGVILKMVQNGTIAGRAVLVAGPPSTGKTALAMGVSQSLGKDVPFTAIAGSEIFSLELSKTEALTQAFRKSIGIKIKEETELIEGEVVEIQIDRSITGGHKQGKLTIKTTDMETIYELGNKMIDGLTKEKVLAGDVISIDKASGKITKLGRSFARSRDYDAMGADTRFVQCPEGELQKRKTVVHTVSLHEIDVINSRTQGFLALFTGDTGEIRSEVRDQINTKVAEWKEEGKAEIVPGVLFIDEVHMLDIECFSFINRALEDEFAPIVMMATNRGVSKTRGTNYKSPHGLPLDLLDRSIIITTKSYNEQEIKTILSIRAQEEEVELSSDALDLLTKTGVETSLRYSSNLISVAQQIAMKRKNNTVEVEDVKRAYLLFLDSARSVKYVQENESQYIDDQGNVQISIAKSADPDAMDTTE
notes: Rvb1p, AAA+ ATPase of yeast R2TP; gene (Genscript) cloned into pET28b with NdeI and BamHI; gene (Genscript) cloned into a modified pRSETA (containing 3X Myc-tags) with NheI and HindIII; also called R2; Rvb1p-Rvb2p hexamer; copies: 3 + 3
B2: Rvb1p (natural protein, Saccharomyces cerevisiae, UniProt Q03940 1-463, looked up)
chain: MVAISEVKENPGVNSSNSGAVTRTAAHTHIKGLGLDESGVAKRVEGGFVGQIEAREACGVIVDLIKAKKMSGRAILLAGGPSTGKTALALAISQELGPKVPFCPLVGSELYSVEVKKTETLMENFRRAIGLRIKETKEVYEGEVTELTPEDAENPLGGYGKTISHVIVGLKSAKGTKTLRLDPTIYESIQREKVSIGDVIYIEANTGAVKRVGRSDAYATEFDLETEEYVPLPKGEVHKKKEIVQDVTLHDLDVANARPQGGQDVISMMGQLLKPKKTEITEKLRQEVNKVVAKYIDQGVAELIPGVLFIDEVNMLDIEIFTYLNKALESNIAPVVVLASNRGMTTVRGTEDVISPHGVPPDLIDRLLIVRTLPYDKDEIRTIIERRATVERLQVESSALDLLATMGTETSLRYALQLLAPCGILAQTSNRKEIVVNDVNEAKLLFLDAKRSTKILETSANYL
notes: Rvb1p, AAA+ ATPase of yeast R2TP; gene (Genscript) cloned into pET28b with NdeI and BamHI; also called Rvb1p-only complex

Tests used:
Tah1p-Pih1p complex = biological target: T1, Tah1p-Pih1p complex; test: AUC; sedimentation velocity, 43,000 rpm, samples 2 to 4 μM in 20 mM HEPES pH 7.8, 140 mM NaCl, 5 mM MgCl2, 0.5 mM EDTA, 0.5 mM TCEP; TP alone, R2 alone, and R2 mixed with TP at 1:2.4 molar ratio; conditions: both partners purified
Rvb2p = biological target: T2, Rvb2p (Saccharomyces cerevisiae, UniProt Q12464 1-471); test: as above; conditions: both partners purified
T2 construct: gene (Genscript) cloned into a modified pRSETA (containing 3X Myc-tags) with NheI and HindIII; also called Rvb2p-only complex; source: Rosetta (DE3) pLysS, co-expressed with Rvb1p, purified (Talon, gel filtration)

Binder | stoichiometry N (Tah1p-Pih1p complex) | stoichiometry N (Rvb2p)
B1 | 1 Rvb1p-Rvb2p hetero-hexamer per Tah1p-Pih1p complex | –
B2 | – | 1 Rvb1p per Rvb2p (3:3)
